Reference: the supplement of paper PMC9170038

Test system: MS2 coat protein
Experiment: apparent KD of MS2 coat protein; designed switch direction (-1 OFF switch, 1 ON switch): 1; higher = weaker reporter binding
In short: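 For each design, the apparent KD is the median over clusters of curves fitted to normalised cluster fluorescence. Clusters held RNA switches with common flanks, transcribed on Illumina chips by stalled E. coli RNA polymerase. These were titrated with SNAP-549-labelled MS2 coat protein, doubling from 0.7 or 1.5 nM to 3 µM, without input, with 200 uM small-molecule ligand, or with an oligonucleotide input.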

[1] = Eterna round: R95, input ligand: FMN 200 uM
[2] = Eterna round: R95, input ligand: microRNA oligo, concentration not stated
[3] = Eterna round: R95, input ligand: none
[4] = input ligand: microRNA oligo, concentration not stated

Row | Sequence | apparent KD of MS2 coat protein [1] | apparent KD of MS2 coat protein [2] | apparent KD of MS2 coat protein [3] | apparent KD of MS2 coat protein (input ligand: FMN 200 uM) | apparent KD of MS2 coat protein [4] | apparent KD of MS2 coat protein (input ligand: none)
1 | AUUUAACAAGCUUUUUGCUCGUCUUAUAAACAUGAGGAUCACCCAUGUAAUAGCGUGAGAGUAAUUAAUUAAAUAAU [JMF 90] (puzzle: Sensor for hsa-mir-208a) | 14.6 nM | 46.9 nM | 13.3 nM | – | – | –
2 | CUGCAACAUGAGGAUCACCCAUGUAACCCGGUUACAGGAUAUGUGAUGGUGAUCGACAUGACAGAAGGGUGAUUGG [Indiinbi] (puzzle: Same State 1) | 41.5 nM | 21.5 nM | 29.6 nM | – | – | –
3 | UUAUAACAUGAGGAUCACCCAUGUCAACAAAGUCGAGGAUAUGGGCAGAGAGGAGAAGAACCAGAAGGCGAAUAUU [Mat - Same State 1 - Mod of UCT - D38] (puzzle: Same State 1) | 91.2 nM | 98.4 nM | 94.9 nM | – | – | –
4 | AGCUAGUACGAAGGAUAUACAAACAUGAGGAUCACCCAUGUAUACAUGGUUUAAUGAGACUACAUGUAGAAGGUCGUACUAGCA [SameState NG2 #13] (Eterna round: R96, puzzle: Same State NG 2) | – | – | – | 559 nM | 423 nM | 1030 nM
5 | UGUUGUAUUACAGGAUAUCUAUUAUGUUUAUUUAGAGAAGGGUAUUCACAUGAGGAUCACCCAUGUAUAUACGAGGAAGUUGUG [JMF's solution 16] (Eterna round: R96, puzzle: Same State NG 1) | – | – | – | – | 37.5 nM | –
6 | CUGCUCGUGUGAGGAUAUGCCGCCGUUUCGGCUGCAGAAGGUGCUACGUUACAUGAGGAUCACCCAUGUCUCUGUUGUUUCGUU [salish99_SSNG1_r04_947] (Eterna round: R96, puzzle: Same State NG 1) | – | – | – | 20.2 nM | 19 nM | 22.8 nM
7 | GAAGGAUGAGCGUAGGAUAUAGGAGGAGUGACAUGAGGAUCACCCAUGUAGUAAGAGGGAGGGUACUAGAAGGACGAGGAAGAAG [JR_SS2_Sub066] (puzzle: Same State 2) | 602 nM | 6 nM | 16.3 nM | – | – | –
8 | CCCAGGCAUGGAGGAUAUGGGAACAUGAGGAUCACCCAUGUUAACUCCGUAGGCGGCUUAAGGCACCAGAAGGCUACGGCUGGU [Eternabot solution 15] (Eterna round: R96, puzzle: Same State NG 2) | – | – | – | 112 nM | 67.8 nM | 83 nM
9 | AUUUAACAAGCUUUUUGCUCGUCUUAUAAACAUGAGGAUCACCCAUGUAAUAGCGUGAGAGUAAUUUAAUAAAUAAU [JMF 84] (puzzle: Sensor for hsa-mir-208a) | 13.7 nM | 51.1 nM | 13.4 nM | – | – | –
10 | UGCAUACAUGAGGAUCACCCAUGUCAACUUAGUCGAGGAUAUGGGCAGCCGUGAGGCGAACCAGAAGGCGAAUUGU [JL-ss1-3.02 ViennaUCT mod] (puzzle: Same State 1) | 18.5 nM | 43.8 nM | 45.7 nM | – | – | –
11 | GGUCCAGCCUGAGCUGGACAAAAGCAUGUACAUGAGGAUCACCCAUGUCAUGUACAAGCUUUUUGCUCGUCAUAAUU [Mat - hsa-mir-208a - 100] (puzzle: Sensor for hsa-mir-208a) | 495 nM | 16 nM | 489 nM | – | – | –
12 | GCUAGGAUAUGACGAGGAUCACCCGUUAGAAGGAGCUUCAGCUAGGAUAUGACGAGGAUCACCCGUUAGAAGGAGCACUACUCU [pwkr ssNG3 DX 2xF5 +2xFMN.8] (Eterna round: R96, puzzle: Same State NG 3) | – | – | – | 205 nM | 90.9 nM | 91.4 nM
13 | UACCAACAUAUAGAACAAGCGUGCUCGUCACAUGAGGAUCACCCAUGUCUAAGCGCUGAACCUGCAUCCUCAGCGCC [Oniste] (puzzle: Sensor for hsa-mir-208a) | 78.5 nM | 26.5 nM | 85.9 nM | – | – | –
14 | AUUUAACAUGAGGAUCACCCAUGUCAACAAAGUCGAGGAUAUGGGCAAAUAAAAUAAGAACCAGAAGGCGAAUAAU [salish99_ss1_r3_070] (puzzle: Same State 1) | 40.5 nM | 283 nM | 368 nM | – | – | –
15 | AACGUUGGCGAGCAGGAUAUCCGCUCAUUAACAUGAGGAUCACCCAUGUUCUGCAAGAUGUGCUAGGAGAAGGGCUGGUCGACAU [Edatar] (puzzle: Same State 2) | 14.9 nM | 18.2 nM | 34.8 nM | – | – | –
16 | UGUUGUAUUACAGGAUAUCUAUUAUUGUUAUUUAGAGAAGGGUAUUCACAUGAGGAUCACCCAUGUAUAUACGAGGAAGUUGUG [JMF's solution 18] (Eterna round: R96, puzzle: Same State NG 1) | – | – | – | – | 39.9 nM | –

Row | Sequence | apparent KD of MS2 coat protein [1] | apparent KD of MS2 coat protein [2] | apparent KD of MS2 coat protein [3] | apparent KD of MS2 coat protein (input ligand: FMN 200 uM) | apparent KD of MS2 coat protein [4] | apparent KD of MS2 coat protein (input ligand: none)
17 | GUGCAACCGUGUGAGGAUAUCGGUGGUAAAACAUGAGGAUCACCCAUGUCCGAAGCUCGGACCUCCGAGAAGGCGCACAGUUGCA [Same State 2 - Mod of Erisin v.1] (puzzle: Same State 2) | 6.82 nM | 5.46 nM | 7.08 nM | – | – | –
18 | AAGAAAGACGCAGGAUAUCAGCGCAAACCGCACUGAGAAGGGUGAGACAUGAGGAUCACCCAUGUAACACGGCAAAACGCCGUG [Lausgeledi] (Eterna round: R96, puzzle: Same State NG 1) | – | – | – | 1530 nM | 268 nM | 219 nM
19 | CUCAAACAUGAGGAUCACCCAUGUGUUGUCAUGGGAGGAUAUCCCAGUUCGUUGUCGUCGGGAGAAGGCCUAUGUC [× ×•×ª×• ×ž×“×™× ×” × ×—×ª-14] (puzzle: Same State 1) | – | 55.9 nM | – | – | – | –
20 | GAAAAGGCGACGCAGGAUAUGAAAGGUGAAACAUGAGGAUCACCCAUGUGCUACCUUCCGAUAAAUCAGAAGGGCGACGCCAAGC [Soleusat] (puzzle: Same State 2) | 9.79 nM | 8.54 nM | 9.6 nM | – | – | –
21 | UUAUAACAUGAGGAUCACCCAUGUCAUCUAAGUCGAGGAUAUGGGAAUUAAUUAAUUAAACCAGAAGGCGAAAAUU [Mat - Same State 1 - D91] (puzzle: Same State 1) | 160 nM | 149 nM | 783 nM | – | – | –
22 | GACCGCGAGGAAGGAUAUCGAGCCUUAUUGGCUCGAGAAGGUCCAUAAAGGACAUGAGGAUCACCCAUGUGGUGAGAAGCGGUC [Mat - Same State NG 1 - JL mod - D76] (Eterna round: R96, puzzle: Same State NG 1) | – | – | – | 187 nM | 1430 nM | 1160 nM
23 | UGUUGUUAAUUAGGAUAUGGACACAUGAGGAUCACCCAUGUAAUGUCGAUGCUAUGUGGACACGUUCAGAAGGAAUGGCUAACA [SameState NG2 #92] (Eterna round: R96, puzzle: Same State NG 2) | – | – | – | 29.7 nM | 53.2 nM | 58.4 nM
24 | ACAAGCUUUUUGCUCAUCUUAUGUCCGAAACAUGAGGAUCACCCAUGUAUAGAUUAUGUGUUGUUUUUGAUACAAGA [JR_SHM208A_Sub064] (puzzle: Sensor for hsa-mir-208a) | 32.1 nM | 24.9 nM | 33.1 nM | – | – | –
25 | GCCGCGUUUCGCGCCUACAUGAGGAUCACCCAUGUUUGUAGGCAGGAUAUCGUUUGCUUUGCAACCGAGAAGGGCUGUUGUGGC [salish99_SSNG3_R04_013] (Eterna round: R96, puzzle: Same State NG 3) | – | – | – | 51.6 nM | 38.4 nM | 55.5 nM
26 | AUUAAUUAAUUAAUACAUGAGGAUCACCCAUGUAAUAAGAUCUAGGAUAUCAGCUCGAUUAGAGCUGAGAAGGAGAUCACAUGU [SSNG3/17-A2] (Eterna round: R96, puzzle: Same State NG 3) | – | – | – | – | 36.3 nM | –
27 | CCAUAGUACAAUUUAGAUCUACAUGAGGAUCACCCAUGUACUGAGGAUAUCAGCUCGAUUAGAGCUGAGAAGGCAGAAUUAAUU [SSNG3/5-A2] (Eterna round: R96, puzzle: Same State NG 3) | – | – | – | 58.4 nM | 96.8 nM | 122 nM
28 | CAAGGACGGACACAGGAUAUCCUCACCUACACAUGAGGAUCACCCAUGUCAUAAAAGAUGGUGCAGGAGAAGGGUGCGGCGUCUA [Bibesoxe] (puzzle: Same State 2) | 10.7 nM | 9.62 nM | 9.99 nM | – | – | –
29 | AGAGGAGGCGCAGGAUAUACGACGGAGGACGUGGUAGAAGGGUGCAUGCGAUAACAUGAGGAUCACCCAUGUACCGCGCGACGA [AK SSNG1-V2-17] (Eterna round: R96, puzzle: Same State NG 1) | – | – | – | 210 nM | 30.2 nM | 198 nM
30 | GCGAGCGUACUUGCUACAUGAGGAUCACCCAUGUUUUAUGGACAGGAUAUGGUACCGUUUCGGUACCAGAAGGGUUCACAUGUA [JL SSNG3 3.83] (Eterna round: R96, puzzle: Same State NG 3) | – | – | – | 116 nM | 150 nM | 426 nM
31 | GCCAGUGCGAAACUCACAUGAGGAUCACCCAUGUGCGUUGAGUAGGAUAUCCGGCUACUCGAGGCGGAGAAGGACUGGGUACUG [Eternabot solution 14] (Eterna round: R96, puzzle: Same State NG 3) | – | – | – | 17.4 nM | 12.3 nM | 17.3 nM
32 | AAUUAAGAUCAAGGAUAUCACGUCGUUUAGACGUGAGAAGGUGAUCAUAACAUGAGGAUCACCCAUGUAUUACAUGAAUUAAUU [SSNG1/2-B3] (Eterna round: R96, puzzle: Same State NG 1) | – | – | – | 72.4 nM | 404 nM | 370 nM
